B1: PfTrx1^C33S (natural protein)
chain: MVKIVTSQAEFDSIISQNELVIVDFFAEWCGPSKRIAPFYEECSKTYTKMVFIKVDVDEVSEVTEKENITSMPTFKVYKNGSSVDTLLGANDSALKQLIEKYAA
notes: Thioredoxin 1 (PfTrx1), P. falciparum, PlasmoDB PF14_0545; Lacks the resolving cysteine; traps targets as a mixed disulfide through Cys 30; also called Trx^C33S; TrxC33S; source: E. coli M15 (pQE30), purified (Ni-NTA)
B2: Plrx (wild type plasmoredoxin, recombinant) (natural protein, P. falciparum, UniProt Q8I224 1-179, looked up)
chain: MACQVDNPPKTYPNDKTAEYEKYANYMNYLYYYQNNELKKIDSSYFKDKYLGLFFGASWCKYCVTFIDSLNIFKKNFPNVEIIYIPFDRTYQEYQSFLKNTNFYALPFDNYLYICKKYQIKNLPSFMLITPNNNILVKDAAQLIKTDEYINNLKSLIKNYIIHPKTFQFNNRFFDLFRN
notes: Plasmoredoxin (Plrx), P. falciparum, Swiss-Prot Q8I224, PlasmoDB PFC0166w; also called wild type Plrx; PfPlrx; source: E. coli M15 (pQE30), purified (Ni-NTA)

Legend:
[1] = target: T1, PfOAT (recombinant ornithine aminotransferase) (P. falciparum strain 3D7, UniProt Q6LFH8 1-414); assay: SPR; BIAcore X; OAT amine-coupled to CM5 chip, oxidized with 0.5 mM DTNB; analyte 10 µM in HBS buffer (10 mM HEPES, 150 mM NaCl, 3.4 mM EDTA, 0.005% Nonidet P-40, pH 7.4), 25°C, 10 µl/min; elution with 2 mM DTT; FC2-FC1; conditions: both partners purified
T1 construct: Ornithine aminotransferase, P. falciparum strain 3D7, Swiss-Prot Q6LFH8, PlasmoDB PFF0435w; gene amplified from a gametocyte cDNA library with primers from the start codon (NcoI) to the last codon (XhoI); Amine-coupled to a CM5 chip and oxidized on the chip with 0.5 mM DTNB before each analyte; source: E. coli BL 21 (pET28a), purified (Ni-NTA)
T1 sequence (looked up): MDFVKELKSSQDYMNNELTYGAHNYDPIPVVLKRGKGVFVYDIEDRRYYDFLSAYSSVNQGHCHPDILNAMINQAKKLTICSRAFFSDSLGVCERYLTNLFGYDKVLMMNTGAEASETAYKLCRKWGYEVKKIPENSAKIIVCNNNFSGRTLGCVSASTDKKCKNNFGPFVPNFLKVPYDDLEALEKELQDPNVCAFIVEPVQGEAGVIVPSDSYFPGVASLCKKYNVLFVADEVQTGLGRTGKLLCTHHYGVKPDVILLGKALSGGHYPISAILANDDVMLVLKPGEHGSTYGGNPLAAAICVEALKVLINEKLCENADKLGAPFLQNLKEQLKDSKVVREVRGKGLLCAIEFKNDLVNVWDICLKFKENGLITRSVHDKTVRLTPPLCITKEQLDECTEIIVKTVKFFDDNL

[2] = target: T2, PfSAHH (recombinant S-adenosyl-L-homocysteine hydrolase) (P. falciparum strain 3D7, UniProt P50250 1-479); assay: SPR; BIAcore X; SAHH amine-coupled to CM5 chip, oxidized with 0.5 mM DTNB; analyte 10 µM in HBS buffer (10 mM HEPES, 150 mM NaCl, 3.4 mM EDTA, 0.005% Nonidet P-40, pH 7.4), 25°C, 10 µl/min; elution with 2 mM DTT; FC2-FC1; conditions: both partners purified
T2 construct: S-adenosyl-L-homocysteine hydrolase, P. falciparum strain 3D7, Swiss-Prot Q7K6A6, PlasmoDB PFE1050w; gene amplified from a gametocyte cDNA library with primers from the start codon (NcoI) to the last codon (XhoI); Amine-coupled to a CM5 chip and oxidized on the chip with 0.5 mM DTNB before each analyte; also called oxidized SAHH; source: E. coli BL 21 (pET28a), purified (Ni-NTA)
T2 sequence (P50250 whole entry): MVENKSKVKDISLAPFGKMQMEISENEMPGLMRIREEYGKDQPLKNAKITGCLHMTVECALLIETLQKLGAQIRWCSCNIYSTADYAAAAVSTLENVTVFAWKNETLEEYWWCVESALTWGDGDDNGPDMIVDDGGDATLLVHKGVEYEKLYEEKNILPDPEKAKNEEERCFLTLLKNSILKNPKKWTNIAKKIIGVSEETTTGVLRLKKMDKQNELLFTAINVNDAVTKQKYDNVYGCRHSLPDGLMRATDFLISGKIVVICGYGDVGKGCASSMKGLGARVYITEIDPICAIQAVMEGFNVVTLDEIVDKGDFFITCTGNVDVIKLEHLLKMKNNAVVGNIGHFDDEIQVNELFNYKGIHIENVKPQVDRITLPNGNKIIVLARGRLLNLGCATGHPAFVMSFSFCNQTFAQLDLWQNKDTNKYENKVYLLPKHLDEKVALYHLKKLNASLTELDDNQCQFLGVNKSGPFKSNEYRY

Binder | binding result [1] | binding result [2]
B1 | binds | binds
B2 | – | binds
